The series in a line: label from the status in PepcDB records.
“MAEKTYSGFVAIVGKPNVGKSTLLNNLLGVKVAPISPRPQTTRKRLRGILTEGRRQIVFVDTPGLHKPMDALGEFMDQEVYEALADVNAVVWVVDLRHPPTPEDELVARALKPLVGKVPILLVGNKLDAAKYPEEAMKAYHELLPEAEPRMLSALDERQVAELKADLLALMPEGPFFYPEDYAKSDQTFGEWVAEILREEAMKRLWHEVPYAVATKVEEVAERENGVLYIKAILYVERPSQKAIVIGEGGRKIKEIGQATRKQLEALLGKKVYLDLEVKVYPDWRKDPEALRELGYRSSVG”: the protein production result is listed as “not failed”.
As to “MAELFIPDEPIIEVTAVLSAILILVLVLPFKVRIVEENLEAFFFIMGLLGVATIYYYGILPTPDSLIGLFIKAFKTPLAIAHVGPIPIGIVQAVVFFGLVFYFFHKHIYSILASTMEKVGIPVFAFILTFLLGLISSVISVIVTAVILAEIAAALNISRERKVKYVVYASFAVGIGAALTPLGEPLSTIAISKLNAHFTYLIDILGVYIVPGIAVSAVAAAYSLRGEVYREGLVKFVYEESINEILLRGFRVFLFVAALELLGASFTPMVKWYFAQLPSWALYWINTISAVVDNATLTAAEMGPFLTEEQIRSALMSLLISGGMLIPGNIPNIVAAGRLRITMNEWARVGVPFGIALLLAYFIVIEVLDIHITLSF”, the protein production result is “failed”.
With “MAEQEDIILEKPEDGLNQPRLDESLEGFKGQEGQAPEDEEFASLPEELPQENSESGFKFTRESAPEDVSTFEEVESQEPTPWYKDRKFMSLVGLSLGIICILVFTLFYLTFSEGKIKPDIIASKPLEQPVIMPDESYKYNDMQRIDGMIQKANALYLKGEVEQALKVYEQVAVYNESLSNYNLGVSQMNENKFQEAFESFKKAIANGENQSVAAINAAVCALKLNDKEKFRYYIDLAQVYLPKEGKSKLYDYYLSLINYYKGYYPEALQMLQRTDVEPYSDVAKYLSAKIYAKMDFDSKAIQQLNSQGNFESSLSLGLLYARIGEYAKAKVALSTAMKIERDFNQSLAALTLVDIKTGNYQDMLARLQNSYDNDKDRYKILDTYKIQVRLNKDLFNIAVAQNSFSKDLLKKQKDQFDLLFYFAPYQVFDSKQAALYIKKANVTDFVDDSTDAGIYLNISKALSSTNVKIANIINYALNQKLRLANQEFQKLIKDYPEHSILHYNLALTYAQMQNYELAYKHFSSSYHLNPKNYLAGAFAMFCAKLIDIDTTKLYNEILDNIAADSNFKANMQKSMLFLVNNNYISMLPYLDETKKDTPLSLIFEAIVAKNNNLNNQVDVKIAKLRSELPEDILANILYFNSLNSNLNIKEYAQNAQIHFKNLKLDYRSVFGGPNIAREFYVNLMHIAGLLNLERQKFKELINVSGAKDEGILQTLAYLDIFAQQYEEAYALYNSLIDDYGAKDTKTLFLAAVAAVGANNPNSAIALLQLSKLTDKNNKESKAALGMLYQEVKNYEAAISQYKTLPNNFKSEFFTFDINNN”, the protein production entry is reported as “failed”.
For “MAERSFSQLPISSSHIGRRTGNTRRGIFPVSEYWIHAIPVIVFLCFFTLWIFSHSVSVMNDGEIMSIHRLEKSMAVRNESHVSLAILASSAVSPASSALVAVVSTNQNLTTFHNATQSQQNATQSVNKAKQPHAV” the value was “not failed”; for “MAESLITKKAIAGGLMELCQHKRFEKISIADITNICGLNRQTFYYHFTDKYDLLTWTYENDFFHCLADGITLENWDKHVLKMLESIKENADFYKNTVSADASILSFCFSKLTNSLFMDLFEKIDTNGAVNEADRVFYAEFFSYGCSGVLIKWITRGFKEAPETIANQLFRLAKDTEFLANSMYRENLEHHHHHH”, “not failed”.
“MAETDPKTVQDLTSVVQTLLQQMQDKFQTMSDQIIGRIDDMSSRIDDLEKNIADLMTQAGVEELESENKIPATQKS”: the protein production result is on record as “failed”.
“MAETTPKVKGHVVILPYPVQGHLNPMVQFAKRLVSKNVKVTIATTTYTASSITTPSLSVEPISDGFDFIPIGIPGFSVDTYSESFKLNGSETLTLLIEKFKSTDSPIDCLIYDSFLPWGLEVARSMELSAASFFTNNLTVCSVLRKFSNGDFPLPADPNSAPFRIRGLPSLSYDELPSFVGRHWLTHPEHGRVLLNQFPNHENADWLFVNGFEGLEETQDCENGESDAMKATLIGPMIPSAYLDDRMEDDKDYGASLLKPISKECMEWLETKQAQSVAFVSFGSFGILFEKQLAEVAIALQESDLNFLWVIKEAHIAKLPEGFVESTKDRALLVSWCNQLEVLAHESIGCFLTHCGWNSTLEGLSLGVPMVGVPQWSDQMNDAKFVEEVWKVGYRAKEEAGEVIVKSEELVRCLKGVMEGESSVKIRESSKKWKDLAVKAMSEGGSSDRSINEFIESLGK”: the protein production entry is reported as “failed”.
For “MAFAPRYSSLIPCALALAASLAGTPDGARAQAPDGPKHPLEKPLAHPPAPPEKLPRVPTDRTKGLDFLFGALKAAPDETSAKHVEGRIWALWSQTTSDTTALLMARSKVAMDAKQFDVALKLLDAVVKLKPDYVEGWNRRATIYYLQNDYMHSLEDIEQVLAREPRHFGALAGLGMIMQELGDDKRALDAFRRALALNPHLDKVPDLVKTLSEKVEGRDI” the value was “failed”; for “MAFAYPKLSEPDTKGEYADGKYKTEGTATEDYTERFQEEIQKVADDNFPGKKNVHLPWKETKEGDIAFIFKNPKKKPILTDSRGKPLKEGTVIRGGSKIRIAGVIAAWEKGAKRGVSLWPDAVRVIKLSEGLEHHHHHH”, “failed”; for “MAFESAGAGELFLLGRLLFGGVLAFMGLNHFQNAGQMAPYAEAKGLPAPVASVYGSGGLLLVSGVLVILGAYPVIAAGALATFLVASAVMMHNFWAVPDDQMQDEMTQFLKNIALAGGALSLLAVAGTSWPYTVGLSLF”, “failed”.
Consider “MAFKVVISDKEKSVQMEVDPSESRGLIGLTIGDEFDGSIIGLSGYKLKITGGSDKNGFPMKKTVPGARRIRSLVSGGVGYKPRRDGERRRKTFRGNTISDDIVQINTVVIEKGEKPLEELLGADEELEHHHHHH”, for which the protein production entry is reported as “failed”.
On to “MAFPEYSPAASAATFADLQIHPRVLRAIGDVGYESPTAIQAATIPALMAGSDVVGLAQTGTGKTAAFAIPMLSKIDITSKVPQALVLVPTRELALQVAEAFGRYGAYLSQLNVLPIYGGSSYAVQLAGLRRGAQVVVGTPGRVIDHLERATLDLSRVDFLVLDEADEMLTMGFADDVERILSETPEYKQVALFSATMPPAIRKLSAKYLHDPFEVTCKAKTAVAENISQSYIQVARKMDALTRVLEVEPFEAMIVFVRTKQATEEIAEKLRARGFSAAAISGDVPQAQRERTITALRDGDIDILVATDVAARGLDVERISHVLNYDIPHDTESYVHRIGRTGRAGRSGAALIFVSPRELHLLKAIEKATRQTLTEAQLPTVEDVNTQRVAKFADSITNALGGPGIELFRRLVEEYEREHDVPMADIAAALAVQCRGGEAFLMAPDPPLSRRNRDQRRDRPQRPKRRPDLTTYRVAVGKRHKIGPGAIVGAIANEGGLHRSDFGQIRIGPDFSLVELPAKLPRATLKKLAQTRISGVLIDLRPYRPPDAARRHNGGKPRRKHVG”, for which the protein production entry is reported as “failed”.
With “MAFQLHPRLQQDCIVLGNLPLCKVLLIKEDIGPWLILVPRIEELKEIHHMTDEQQIQFIKESSAVAQLLEDNFSPDKINIGALGNLVPQLHIHHIARFTTDVAWPGPVWGNTTGVIRAQSSQTQLVDLLRDKLSNISGFKRLEHHHHHH”, the protein production result was “not failed”.
On to “MAFRYEHQEPGSRVISGGRDHSNRLLERLGFTVIDGRPTTVEGERAWRLAVWSHLQLTEDLSQVPPGVLRAFGVYGGGQGIWMDKARTDAVHEGGITMGVLHTGAHYPDEISDNDVIYHYPTTGRGPGRDESEVAATKAAATLKLPIFVIAKPTPRSSVRIVRLAWVEGWEERSRIFLISFGDSRPEHLLTEDHSDNQPFSLTGNRSRSSRRNVRERPGQRRFKLRVFQRYGPRCPLSGIAVPEMIEAAHLRPDAEDGTDDPRNGLPLNAALHRAYDAYLFAIEPETLSVVTRPQGPTIEELGIFTPHLRELPRRPHTEALRWRYREWQLRIGTQG”, for which the protein production result is “failed”.
As for “MAFTESDVYNNEAFFKQYMKRRYRENSPNELIEKPAFFQLIGDVKGKKILDLGCGDAIFGKELLEKDCHSYTGIEGSELMYEKAKKQLENKNGIVHFLNLKDYTYPPATFDLVTSRLALHYIEHLPIIFQNVYETLKTNGTFTFSVQHPVITSSFESLQTSGKRTSWLVDDYFKTGKRVEPWIDQKVIKYHRTTEEYFTLLQQAGFTITNLKEATPNQTYFQSAEEYERRLRIPLFLLFSCRKLEHHHHHH”, the protein production result is given as “not failed”.
For “MAGETPEQGEGRIISGRYRLLRTLGAGGMGRVWLAYDAELACEVAVKEIALPDLPIDASEPVQRIARARSEARNAARLRGHPHVATVHDVVVHEGLPWIVMEHVPDAIDLQAVVRRSGPLTPARTARIGVAVLDALTAGHRIGILHRDVKPANILLAPDASGDPYARVLLTDYGIALQPESREPRLTATAGILGTPGYLAPERARGEPPTPAADLFSLGATLYATVEGRGPFDRHGEYATLTALLGEEPTPPVRAGELGAVLHGLLIKDPVRRLAPEAVARGLEAVARAAPGEGFGPPPGWGSAPSVGQGFGPPPQGFGPPPDGFGPPSGTPSVSPPSAEGATTAPGAPGAPQVSAPGTPQTPGAPRTPHTPHTPQTPAGGPGTPPGSPSAYNPWRPTPPSGPYDPGNPYASSPSSPYAGTGAPAAYEGGPAYFPPRPSPRRKSAAALVALVVAAALVVTGGIWAALSLTGGPTGDGGGTTGQRAKKSPPVSGPQSTKPAGPVLPYGEQVGLTEPLQAGDCVRAVWSGAAFKSVPNLGVVDCADDWPDGQVVAVDTATDYADARDRGARRCAGQSQATADALPDAGVYAVAPTKEGFTAASGGTACLVLGRHAAIGGEVGRFRDTGTDLWVGQMSIGDCWIYKEEKDSYKAPLSDCAQPHTDQVIGAVSAPKNMDYKKGVDNGNKLCGNKFESSWAPGPARQVFGWVADKEDWNDGFDKVVCTVRRSDGAETSGKISAPGAV” the value was “failed”.
Consider “MAGFMKNAMSYLGMSDVAEGEDDFEDDVDTGETSFDSDHSVTPMPSSSASASTPSAPREQSNPFQGGRVSRITTIHPKTYDDAQMVGRAIRDGIPVVLNLTGVAEAVAYRIVDFSAGVVFGVRGSIERVTPRVFLLSPAQVNIKVEEPEDKGPAHDLFAD”, for which the protein production entry is on record as “failed”.
As to “MAGGAVSKGNVIVGLFRKRTSLLITSILLGLIGLPSLGVLDIGNLARAEKAATNAPSPTTPDIKPSELKPAYPASAPPPRVDPLPDERDMQERVVEIDYRVSNLLGDFAGNLWVGSWRGLSRIDPKTGKILARVSLPNVAIGALAQDKVGRLWVGTYEGLKRVEPRTNEISAQNLFLPSKRVLSLLTDKRGYLWVGTDNGLALVSPDQGLIMTTVKNLPGVSGNTLTLDADGQLWTGTLDGVVRINTASALIMKRINDLPGTTVQALAISPEGLIWAGMPNNLLVINPKTGVVLRSVTRLRGRNVTAVRFAKDGSVWVGTHNGLLRLNPNTGAVLDEVAGLPSSRVLSLMPDVANKLWIGTSEGLAWLMPKMDKAKPHLAFSRLVK”, the protein production entry is recorded as “failed”.
Consider “MAGMDNLIAIAAAMLYLLSIATIVPGLVNQTGIRAKTVFISAAIALLFHGWLLSDLILHSSGQNLSILNVASLISFIISLAMSLAMFKTRLWFLLPVAYSFSAINLSAATFLPGTFITHLESDPKLLLHISLALFSYSTLSIGALYALQLAWLDHKLKSKKVFSINPNLPPLLLVERQLFKIILIGNLLLTGTLLTGFIFVQDMFAQGKAHKGILSFVAWIVYSILLWGHYRKGWRGKKVTWFAVAGATLLTLAYFGSRFVREIILR”, for which the protein production entry is reported as “failed”.
Turning to “MAGNFWQSSHYLQWILDKQDLLKERQKDLKFLSEEEYWKLQIFFTNVIQALGEHLKLRQQVIATATVYFKRFYARYSLKSIDPVLMAPTCVFLASKVEEFGVVSNTRLIAAATSVLKTRFSYAFPKEFPYRMNHILECEFYLLELMDCCLIVYHPYRPLLQYVQDMGQEDMLLPLAWRIVNDTYRTDLCLLYPPFMIALACLHVACVVQQKDARQWFAELSVDMEKILEIIRVILKLYEQWKNFDERKEMATILSKMPKPKPPPNSEGEQGPNGSQNSSYSQS”, the protein production entry is recorded as “not failed”.
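Further: failed if final PepcDB status was selected cloned or expressed and not failed if soluble or beyond.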
